Laboratory results as given in IntAct's records for PubMed 24240280.

B1: Synaptic vesicle glycoprotein 2C (Homo sapiens), Q496J9 (parent)
chain: MEDSYKDRTSLMKGAKDIAREVKKQTVKKVNQAVDRAQDEYTQRSYSRFQDEEDDDDYYPAGETYNGEANDDEGSSEATEGHDEDDEIYEGEYQGIPSMNQAKDSIVSVGQPKGDEYKDRRELESERRADEEELAQQYELIIQECGHGRFQWALFFVLGMALMADGVEVFVVGFVLPSAETDLCIPNSGSGWLGSIVYLGMMVGAFFWGGLADKVGRKQSLLICMSVNGFFAFLSSFVQGYGFFLFCRLLSGFGIGGAIPTVFSYFAEVLAREKRGEHLSWLCMFWMIGGIYASAMAWAIIPHYGWSFSMGSAYQFHSWRVFVIVCALPCVSSVVALTFMPESPRFLLEVGKHDEAWMILKLIHDTNMRARGQPEKVFTVNKIKTPKQIDELIEIESDTGTWYRRCFVRIRTELYGIWLTFMRCFNYPVRDNTIKLTIVWFTLSFGYYGLSVWFPDVIKPLQSDEYALLTRNVERDKYANFTINFTMENQIHTGMEYDNGRFIGVKFKSVTFKDSVFKSCTFEDVTSVNTYFKNCTFIDTVFDNTDFEPYKFIDSEFKNCSFFHNKTGCQITFDDDYSAYWIYFVNFLGTLAVLPGNIVSALLMDRIGRLTMLGGSMVLSGISCFFLWFGTSESMMIGMLCLYNGLTISAWNSLDVVTVELYPTDRRATGFGFLNALCKAAAVLGNLIFGSLVSITKSIPILLASTVLVCGGLVGLCLPDTRTQVLM

Variants of: B1
Details: with bxa1_clobo botA

Variant | effect of a mutation on the interaction
F563A | disrupting interaction strength
